Reference: PMC6013494, “Dual recognition of H3K4me3 and H3K27me3 by a plant histone reader SHL” (Nature Communications, 2018)
Entries after “also recorded” stand apart in the source; their conditions may differ. No end group written: not given here. Me3 = trimethyl-lysine; Me2 = dimethyl-lysine

B1: SHL from Populus trichocarpa (PtSHL), wild type (natural protein)
chain: SMAKAKAPRRTLDSYTVKPINKTVKPGDCVLMRPSDPSKPSYVAKIERIESDGRGPNVRVRVRWYYRPEESIGGRRQFHGSKEVFLSDHYDTQSADTIEGKCMVHSFKNYTKLDAVGNDDFFCRFEYNSSTGAFNPDRVAVYCKCEMPYNPDDLMVQCEGCSDWFHPACIEMSAEEAKRLDHFFCENCSSEGQKKLQNSHNTRQSDAKAETKRRRR

Assays:
full-length AtSHL [1] = assay: Histone peptide pulldown, full-length AtSHL; format: binding, Arabidopsis thaliana; details: biotinylated histone peptides, 2 μg GST-tagged SHL, 50 mM Tris-HCl, pH 8.0, 300 mM NaCl, 3 h at 4 °C; anti-GST immunoblot
Description: The […] biotinylated histone peptides were first incubated with 62.5 μl magnetic streptavidin bead slurry (NEB) pre-washed with 1 ml peptide binding buffer (50 mM Tris-HCl, pH 8.0, 300 mM NaCl, 0.1% Nonidet P-40) for 1 h at 4 °C. The peptide-bound beads were washed twice with 1 ml of peptide binding buffer and then incubated with 2 μg GST-tagged SHL proteins in the peptide binding buffer for 3 h at 4 °C. After washing three times with binding buffer, protein-bead complex was boiled in 1XSDS loading buffer (50 mM Tris-HCl, pH 6.8, 2% sodium dodecyl sulfate, 0.01% bromophenol blue, 2 mM dithiothreitol and 2 mM β-mercaptoethanol), subjected to SDS-PAGE gel, and detected with an anti-GST antibody (CAB4169, Thermo Fisher, 1:3000). The raw images of the western blots can be found in Supplementary Fig. 6a.

PtSHL + H3K4me3 = target: T1, PtSHL + H3K4me3 (Populus trichocarpa, UniProt B9H0V2); assay: Competitive ITC, PtSHL pre-saturated with 2-fold excess H3(1-15)K4me3; details: ITC binding stoichiometry
T1 sequence (B9H0V2 1-215): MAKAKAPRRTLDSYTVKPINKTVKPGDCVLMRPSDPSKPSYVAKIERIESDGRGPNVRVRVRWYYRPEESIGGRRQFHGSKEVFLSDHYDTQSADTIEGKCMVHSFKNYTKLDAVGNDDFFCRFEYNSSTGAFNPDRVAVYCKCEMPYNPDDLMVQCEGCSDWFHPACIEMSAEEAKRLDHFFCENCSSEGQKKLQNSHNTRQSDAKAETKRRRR
Description: To further investigate the binding mechanism of H3K4me3 and H3K27me3 by the two domains of SHL, we performed competitive binding assays.
(§1) The interaction between SHL and histone peptides was monitored on a Microcal PEAQ-ITC instrument (Malvern) at 20 °C. An additional artificial tyrosine residue was added to the C-terminus of the peptide in the ITC experiment for accurately measuring the concentration of peptide by OD280. The protein was dialyzed against a buffer of 100 mM NaCl and 20 mM Tris-HCl, pH 8.0 for 3 h and the lyophilized peptides were dissolved into the same buffer. The titration data were fit using the program Origin 7.0.

PtSHL D90A = assay: ITC, PtSHL D90A; parameters: species or system Populus trichocarpa; details: 20 °C, pH 8.0, NDB, no detectable binding
Description: (§2) The full-length AtSHL was cloned into a pET-Sumo vector to fuse a hexahistidine-sumo tag to the target protein. The plasmids were transformed into Escherichia coli strain BL21(DE3) RIL (Stratagene). The protein expression was induced by adding IPTG to a final concentration of 0.2 mM upon the OD600 of cell culture reaching to 0.7, followed by overnight induction at 20 °C. The recombinant protein was purified using a HisTrap column (GE Healthcare). The hexahistidine-sumo tag was cleaved by ulp1 protease and removed by a second step HisTrap column. The AtSHL protein was further purified using a Superdex G200 column (GE Healcare). The PtSHL was cloned, expressed, and purified using the same strategy as AtSHL. All mutant versions of SHL were generated using a PCR based method and expressed and purified using the same protocol as wild type SHL protein. The peptides were purchased from the GL Biochem Company (Shanghai).
as §1, with “The titration data were fit using the program Origin 7.0.” left out

PtSHL Y41A = assay: ITC, PtSHL Y41A; parameters: species or system Populus trichocarpa; details: 20 °C, pH 8.0, NDB, no detectable binding
Description: as §2
as §1, with “The titration data were fit using the program Origin 7.0.” left out

PtSHL H88A = assay: ITC, PtSHL H88A; parameters: species or system Populus trichocarpa; details: 20 °C, pH 8.0, NDB, no detectable binding
Description: as §2
as §1, with “The titration data were fit using the program Origin 7.0.” left out

PtSHL W63A = assay: ITC, PtSHL W63A; parameters: species or system Populus trichocarpa; details: 20 °C, pH 8.0, NDB, no detectable binding
Description: as §2
as §1, with “The titration data were fit using the program Origin 7.0.” left out

PtSHL Y65A = assay: ITC, PtSHL Y65A; parameters: species or system Populus trichocarpa; details: 20 °C, pH 8.0, NDB, no detectable binding
Description: as §2
as §1, with “The titration data were fit using the program Origin 7.0.” left out

full-length AtSHL [2] = assay: Histone peptide microarray, full-length AtSHL; format: binding, Arabidopsis thaliana; details: 500 nM GST-tagged SHL, 50 mM HEPES, pH 7.5, 50 mM NaCl, RT, 2 h; anti-GST, fluorescence 635 nm; average of three replicate spots
Description: Peptide microarray assay was performed as following a previous study. Specifically, the peptide array slide was blocked with blocking solution (1 × PBS, 0.05% Tween-20 pH 7.4, 1% BSA) at 4 °C overnight. After washing three times with 1 ml TTBS buffer (10 mM Tris-HCl, pH 7.5, 150 mM NaCl, 0.05% Tween-20), the slide was incubated with 500 nM GST-tagged recombinant SHL in 1 ml binding buffer (50 mM HEPES, pH 7.5, 50 mM NaCl, 5% glycerol, 0.4% BSA, 2 mM DTT) at RT for 2 h. The slide was then washed with TTBS three times and incubated with an anti-GST antibody (Thermo Fisher, CAB4169, 1:3000 dilution) in TBS with 1% BSA for 1 h at RT. After washing with TTBS three times, the slide was incubated with an anti-rabbit IRDye 650 secondary antibody (LI-COR, P/N 926-65020, 1:5000 dilution) in 1 ml TBS buffer with 1% BSA for 1 h. The slide was washed with TTBS three times, dried by centrifugation, and imaged at dual wavelengths of 532 and 635 nm on Axon GenePix 4000B (Molecular Devices). The laser power was set to 100%, with automatic gain adjustment (0.05% saturation tolerance) for dual photomultipliers. […] Signal intensities were quantified by GenePix Pro 6.1 software (Molecular Devices). […] For each peptide species, an average was calculated from three replicate spots. […]

PtSHL = assay: ITC, PtSHL (wild type) with histone peptides; parameters: species or system Populus trichocarpa; details: Microcal PEAQ-ITC, 20 °C, 100 mM NaCl, 20 mM Tris-HCl, pH 8.0, peptide with additional C-terminal tyrosine, PtSHL WT, NDB, no detectable binding
Description: as §2
as §1, with “The titration data were fit using the program Origin 7.0.” left out

[3] = target: SHL from Populus trichocarpa (PtSHL), wild type (Populus trichocarpa); assay: ITC; PtSHL pre-saturated with 2-fold excess H3(20-36)K27me3 peptide, titrated by H3(1-15)K4me3 peptide; 20 °C, 100 mM NaCl, 20 mM Tris-HCl pH 8.0
[4] = target: SHL from Populus trichocarpa (PtSHL), wild type (Populus trichocarpa); assay: ITC; Microcal PEAQ-ITC, 20 °C; 100 mM NaCl, 20 mM Tris-HCl pH 8.0; protein titrated by peptide
[5] = target: Arabidopsis SHORT LIFE (AtSHL), full length, tag removed (Arabidopsis) (UniProt Q9FEN9); assay: as above
[6] = target: SHL from Populus trichocarpa (PtSHL), wild type (Populus trichocarpa); assay: ITC; PtSHL pre-saturated with 2-fold excess H3(1-15)K4me3 peptide, titrated by H3(20-36)K27me3 peptide; 20 °C, 100 mM NaCl, 20 mM Tris-HCl pH 8.0
[7] = target: B1; assay: ITC
PtSHL Y148A = target: T2, PtSHL Y148A (Populus trichocarpa); assay: ITC
T2 chain: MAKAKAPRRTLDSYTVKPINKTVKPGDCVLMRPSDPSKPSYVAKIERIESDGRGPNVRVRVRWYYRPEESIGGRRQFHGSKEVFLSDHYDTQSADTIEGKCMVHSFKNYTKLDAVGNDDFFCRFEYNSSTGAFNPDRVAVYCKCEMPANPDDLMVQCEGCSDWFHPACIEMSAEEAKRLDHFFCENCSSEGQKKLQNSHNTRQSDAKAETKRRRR

PtSHL Q156A = target: T3, PtSHL Q156A (Populus trichocarpa); assay: ITC
T3 chain: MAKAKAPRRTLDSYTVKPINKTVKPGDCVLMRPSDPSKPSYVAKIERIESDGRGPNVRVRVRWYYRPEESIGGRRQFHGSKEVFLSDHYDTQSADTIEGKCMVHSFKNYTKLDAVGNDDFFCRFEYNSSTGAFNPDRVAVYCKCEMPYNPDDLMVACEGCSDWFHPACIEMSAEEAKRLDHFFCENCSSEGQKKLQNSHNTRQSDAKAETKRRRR

H3K4me2 = target: T4, H3K4me2 (Arabidopsis thaliana); assay: ITC
T4 chain: ARTK(Me2)QTARKSTGGKAY

H3K4me1 = target: T5, H3K4me1 (Arabidopsis thaliana); assay: ITC
T5 chain: ARTK(Me)QTARKSTGGKAY

Sequence of Arabidopsis SHORT LIFE (AtSHL), full length, tag removed (Arabidopsis) (Q9FEN9 whole entry): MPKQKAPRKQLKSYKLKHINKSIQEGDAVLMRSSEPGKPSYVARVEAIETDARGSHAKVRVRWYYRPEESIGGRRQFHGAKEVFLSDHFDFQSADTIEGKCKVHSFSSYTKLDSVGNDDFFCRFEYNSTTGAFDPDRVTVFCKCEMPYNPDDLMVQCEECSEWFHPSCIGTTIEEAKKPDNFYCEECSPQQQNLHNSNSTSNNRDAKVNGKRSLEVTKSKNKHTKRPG

`CC(C)C[C@H](N)C(=O)N[C@@H](C)C(=O)N[C@H](C(=O)N[C@@H](CCCCN)C(=O)N[C@@H](C)C(=O)N[C@@H](C)C(=O)N[C@@H](CCCNC(=N)N)C(=O)N[C@@H](CCCC[N+](C)(C)C)C(=O)N[C@@H](CO)C(=O)N[C@@H](C)C(=O)N1CCC[C@H]1C(=O)N[C@@H](C)C(=O)N[C@H](C(=O)NCC(=O)NCC(=O)N[C@H](C(=O)N[C@@H](CCCCN)C(=O)N[C@@H](Cc1ccc(O)cc1)C(=O)O)C(C)C)[C@@H](C)O)[C@@H](C)O` [H3K27me3] was tested, and the “binding in histone peptide pulldown” value (full-length AtSHL [1]) was “capable of binding”, the N-value (PtSHL + H3K4me3) was 0.818 and the Kd (PtSHL D90A) was “NDB and abolished”. For the same molecule, the Kd (PtSHL Y41A) was “NDB and abolished”, the Kd (PtSHL H88A) was “NDB and abolished” and the Kd (PtSHL W63A) was “NDB and abolished”. The Kd (PtSHL Y65A) was “NDB and abolished”, the “binding on histone peptide microarray” value (full-length AtSHL [2]) was “preferentially binds; also recorded: strong binding affinity” and the Kd (PtSHL) was 21.3 µM.

Molecule “H3(1-15)K4me3 peptide with an additional C-terminal tyrosine (ITC)” has a Kd [3] of 27.6 µM and a Kd [4] of 20.6 µM.

With “H3(1-35)K4me3K27me3 peptide with an additional C-terminal tyrosine (ITC)” the Kd [4] was 16.9 µM and the stoichiometry N [4] was 1.17.

For “H3(20-36)K27me3 peptide with an additional C-terminal tyrosine (ITC)”, the Kd [5] was 15.1 µM, the Kd [4] was 21.3 µM and the Kd [6] was 18.7 µM.

Work on “H3K27me1 peptide with an additional C-terminal tyrosine (ITC)” yielded a Kd [5] of 78.3 µM.

With “H3K27me2 peptide with an additional C-terminal tyrosine (ITC)” the Kd [5] was 30.8 µM.

For LATKAARK(Me2)SAPATGGVKY [H3K27me2 peptide with an additional C-terminal tyrosine (ITC)], the Kd [7] was 28.9 µM.

ARTK(Me3)QTARKSTGGKAY [H3(1-15)K4me3 peptide with an additional C-terminal tyrosine (ITC)] showed a Kd (PtSHL Y148A) of 44 µM and a Kd (PtSHL Q156A) of 66.1 µM.

B1 showed a Kd (H3K4me2) of 23.9 µM and a Kd (H3K4me1) of 67.1 µM.

Work on LATKAARK(Me)SAPATGGVKY [H3K27me1 peptide with an additional C-terminal tyrosine (ITC)] yielded a Kd [7] of 58.1 µM.
